From the Human Domainome abundance scans (Beltran et al. 2025)
± gives the uncertainty stated by the source.

B1: Kinesin-like protein KIF16B, residues 1213 to 1273; numbered along this chain, Q96L93 (parent)
chain: ETWTVFRRYSRFREMHKTLKLKYAELAALEFPPKKLFGNKDERVIAERRSHLEKYLRDFFS

Variants of: B1
Assay: abundance fitness (aPCA) (normalised: wild type 0, dead -1); higher = more abundant; growth selection in yeast, the domain comes from the species named
Conditions: Homo sapiens

Row | Variant | abundance fitness
1 | H51L | -0.098 ± 0.081
2 | H51M | -0.368 ± 0.17
3 | H51N | -0.436 ± 0.38
4 | H51P | -0.164 ± 0.22
5 | H51Q | 0.002 ± 0.19
6 | H51R | 0.194 ± 0.071
7 | H51S | -0.047 ± 0.089
8 | H51W | -0.069 ± 0.13
9 | H51Y | -0.235 ± 0.11
10 | L52A | -0.201 ± 0.073
11 | L52F | 0.048 ± 0.12
12 | L52G | -0.149 ± 0.047
13 | L52H | -0.123 ± 0.32
14 | L52I | -0.092 ± 0.12
15 | L52K | -0.184 ± 0.12
16 | L52M | -0.131 ± 0.093
17 | L52N | -0.642 ± 0.34
18 | L52P | 0.175 ± 0.09
19 | L52Q | -0.866 ± 0.19
20 | L52R | -0.473 ± 0.058
21 | L52S | -0.647 ± 0.1
22 | L52T | -0.363 ± 0.091
23 | L52V | 0.058 ± 0.059

Row | Variant | abundance fitness
24 | L52W | 0.217 ± 0.077
25 | E53A | 0.191 ± 0.067
26 | E53C | 0.31 ± 0.13
27 | E53F | 0.243 ± 0.078
28 | E53G | 0.426 ± 0.047
29 | E53H | 0.059 ± 0.15
30 | E53I | 0.197 ± 0.11
31 | E53K | 0.391 ± 0.069
32 | E53L | 0.352 ± 0.059
33 | E53M | 0.309 ± 0.076
34 | E53N | 0.292 ± 0.28
35 | E53P | 0.228 ± 0.15
36 | E53R | 0.412 ± 0.053
37 | E53S | 0.414 ± 0.06
38 | E53T | 0.317 ± 0.097
39 | E53V | 0.277 ± 0.053
40 | E53W | 0.378 ± 0.082
41 | E53Y | 0.329 ± 0.1
42 | K54A | -0.251 ± 0.076
43 | K54C | -0.785 ± 0.42
44 | K54D | -0.489 ± 0.16
45 | K54E | -0.298 ± 0.14
46 | K54F | -0.664 ± 0.097

Row | Variant | abundance fitness
47 | K54G | -0.171 ± 0.06
48 | K54H | -0.532 ± 0.41
49 | K54I | -0.314 ± 0.14
50 | K54L | -0.256 ± 0.058
51 | K54M | -0.327 ± 0.07
52 | K54N | -0.127 ± 0.11
53 | K54P | -0.945 ± 0.39
54 | K54R | 0.076 ± 0.043
55 | K54S | -0.174 ± 0.035
56 | K54T | -0.013 ± 0.071
57 | K54V | -0.289 ± 0.069
58 | K54W | -0.476 ± 0.077
59 | Y55A | -0.007 ± 0.082
60 | Y55C | 0.265 ± 0.088
61 | Y55D | -0.613 ± 0.092
62 | Y55E | -0.942 ± 0.19
63 | Y55G | 0.021 ± 0.054
64 | Y55H | -0.116 ± 0.12
65 | Y55K | 0.481 ± 0.066
66 | Y55L | 0.182 ± 0.058
67 | Y55M | 0.185 ± 0.082
68 | Y55N | -0.249 ± 0.13
69 | Y55P | -0.19 ± 0.14

Row | Variant | abundance fitness
70 | Y55R | 0.396 ± 0.055
71 | Y55S | 0.12 ± 0.064
72 | Y55V | -0.082 ± 0.065
73 | Y55W | 0.281 ± 0.07
74 | L56C | 0.032 ± 0.08
75 | L56D | -0.343 ± 0.13
76 | L56E | -1.2 ± 0.3
77 | L56I | -0.011 ± 0.087
78 | L56K | -0.567 ± 0.14
79 | L56M | -0.191 ± 0.081
80 | L56N | -0.518 ± 0.46
81 | L56P | -0.308 ± 0.13
82 | L56Q | 0.163 ± 0.094
83 | L56R | -0.584 ± 0.066
84 | L56S | -0.453 ± 0.043
85 | L56T | -0.001 ± 0.081
86 | L56V | -0.019 ± 0.053
87 | L56Y | -0.263 ± 0.19
88 | R57A | -0.444 ± 0.085
89 | R57C | -0.239 ± 0.07
90 | R57D | -0.712 ± 0.16
91 | R57E | -0.636 ± 0.11
92 | R57F | -0.33 ± 0.1

Row | Variant | abundance fitness
93 | R57H | -0.6 ± 0.25
94 | R57I | -0.388 ± 0.095
95 | R57K | -0.094 ± 0.11
96 | R57L | -0.368 ± 0.059
97 | R57M | -0.468 ± 0.12
98 | R57N | -0.395 ± 0.11
99 | R57P | -0.087 ± 0.094
100 | R57Q | -0.776 ± 0.14
101 | R57S | -0.427 ± 0.063
102 | R57T | -0.309 ± 0.06
103 | R57V | -0.412 ± 0.093
104 | R57W | -0.447 ± 0.11
105 | R57Y | -0.437 ± 0.18
106 | D58A | 0.087 ± 0.083
107 | D58C | -0.024 ± 0.17
108 | D58F | 0.049 ± 0.25
109 | D58G | 0.03 ± 0.053
110 | D58H | 0.09 ± 0.11
111 | D58I | 0.012 ± 0.19
112 | D58K | 0.241 ± 0.081
113 | D58L | -0.075 ± 0.08
114 | D58M | 0.056 ± 0.069
115 | D58N | -0.149 ± 0.21

Row | Variant | abundance fitness
116 | D58P | 0.09 ± 0.084
117 | D58Q | -0.153 ± 0.13
118 | D58R | 0.161 ± 0.049
119 | D58S | -0.182 ± 0.086
120 | D58V | -0.048 ± 0.061
121 | D58W | 0.204 ± 0.054
122 | F59A | -0.607 ± 0.11
123 | F59C | -0.429 ± 0.14
124 | F59E | -0.627 ± 0.11
125 | F59G | -0.573 ± 0.076
126 | F59I | -0.031 ± 0.41
127 | F59K | -0.204 ± 0.12
128 | F59L | -0.157 ± 0.068
129 | F59M | -0.277 ± 0.08
130 | F59Q | -0.51 ± 0.18
131 | F59R | -0.461 ± 0.07
132 | F59S | -0.994 ± 0.18
133 | F59T | -0.489 ± 0.11
134 | F59V | -0.121 ± 0.06
135 | F59W | -0.005 ± 0.075
136 | F60A | -0.729 ± 0.11
137 | F60C | -0.263 ± 0.15
138 | F60E | -1 ± 0.23

Row | Variant | abundance fitness
139 | F60G | -0.647 ± 0.088
140 | F60I | -0.143 ± 0.28
141 | F60L | -0.087 ± 0.064
142 | F60M | -0.256 ± 0.097
143 | F60P | -0.759 ± 0.14
144 | F60Q | -1.01 ± 0.33
145 | F60R | -0.565 ± 0.097
146 | F60S | -0.585 ± 0.1
147 | F60V | -0.165 ± 0.086
148 | F60W | 0.153 ± 0.073
149 | S61A | -0.263 ± 0.23
150 | S61C | -0.412 ± 0.32
151 | S61G | -0.09 ± 0.18
152 | S61K | -0.025 ± 0.087
153 | S61L | -0.038 ± 0.36
154 | S61M | -0.073 ± 0.19
155 | S61N | -0.23 ± 0.11
156 | S61P | -0.337 ± 0.1
157 | S61Q | 0.11 ± 0.17
158 | S61R | 0.143 ± 0.14
159 | S61T | -0.296 ± 0.16
160 | S61V | -0.029 ± 0.099
161 | S61Y | -0.81 ± 0.4
